# T1: FGF8b (UniProt P55075-3 23-215)
# T1 construct: Coated on ELISA plates; also called ligand protein FGF8b
# T1 sequence (looked up): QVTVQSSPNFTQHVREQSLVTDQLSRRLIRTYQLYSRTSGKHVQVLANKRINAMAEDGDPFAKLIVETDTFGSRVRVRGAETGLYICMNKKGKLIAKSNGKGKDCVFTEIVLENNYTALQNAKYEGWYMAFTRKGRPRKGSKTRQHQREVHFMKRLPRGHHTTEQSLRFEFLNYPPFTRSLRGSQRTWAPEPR
# T2: FGFR2 IIIb-Fc (human)
# T2 construct: also called FGFR2IIIb beta-ECD; FGFR2IIIb-hFc
# T2 chain: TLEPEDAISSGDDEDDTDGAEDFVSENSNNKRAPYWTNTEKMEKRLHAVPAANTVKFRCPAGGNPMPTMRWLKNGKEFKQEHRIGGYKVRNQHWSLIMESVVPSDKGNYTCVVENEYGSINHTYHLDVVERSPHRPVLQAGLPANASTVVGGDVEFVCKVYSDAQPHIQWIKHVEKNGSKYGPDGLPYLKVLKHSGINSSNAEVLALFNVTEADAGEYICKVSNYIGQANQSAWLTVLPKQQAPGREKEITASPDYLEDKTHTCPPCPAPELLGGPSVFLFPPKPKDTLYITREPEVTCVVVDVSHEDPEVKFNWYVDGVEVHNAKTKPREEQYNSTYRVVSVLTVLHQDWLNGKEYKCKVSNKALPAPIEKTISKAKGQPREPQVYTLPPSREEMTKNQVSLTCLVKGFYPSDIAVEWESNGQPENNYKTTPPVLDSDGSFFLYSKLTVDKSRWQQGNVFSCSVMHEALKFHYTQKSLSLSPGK
# T3: 128AA-mFc (128-amino acid loop-3 fragment of FGFR2IIIc fused to mouse Fc) (human)
# T3 chain: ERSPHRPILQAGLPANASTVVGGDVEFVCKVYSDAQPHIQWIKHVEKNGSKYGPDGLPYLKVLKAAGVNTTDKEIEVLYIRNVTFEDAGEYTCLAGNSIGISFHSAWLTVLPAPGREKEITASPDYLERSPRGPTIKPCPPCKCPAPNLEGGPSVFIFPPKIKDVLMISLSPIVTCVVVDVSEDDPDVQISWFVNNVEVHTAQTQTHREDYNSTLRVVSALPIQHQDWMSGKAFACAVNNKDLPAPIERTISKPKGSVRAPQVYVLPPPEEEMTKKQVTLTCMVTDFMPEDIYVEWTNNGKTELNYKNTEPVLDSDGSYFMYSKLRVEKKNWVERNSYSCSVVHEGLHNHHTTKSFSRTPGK
# B1: soluble FGFR2 IIIc-Fc fusion protein (Fc fusion)
# chain: RPSFSLVEDTTLEPEGAPYWTNTEKMEKRLHAVPAANTVKFRCPAGGNPMPTMRWLKNGKEFKQEHRIGGYKVRNQHWSLIMESVVPSDKGNYTCVVENEYGSINHTYHLDVVERSPHRPILQAGLPANASTVVGGDVEFVCKVYSDAQPHIQWIKHVEKNGSKYGPDGLPYLKVLKAAGVNTTDKEIEVLYIRNVTFEDAGEYTCLAGNSIGISFHSAWLTVLPAPGREKEITASPDYLERSDKTHTCPPCPAPELLGGPSVFLFPPKPKDTLYITREPEVTCVVVDVSHEDPEVKFNWYVDGVEVHNAKTKPREEQYNSTYRVVSVLTVLHQDWLNGKEYKCKVSNKALPAPIEKTISKAKGQPREPQVYTLPPSREEMTKNQVSLTCLVKGFYPSDIAVEWESNGQPENNYKTTPPVLDSDGSFFLYSKLTVDKSRWQQGNVFSCSVMHEALKFHYTQKSLSLSPGK
# notes: Extracellular domain of human FGFR2 beta (IIIc), aa 1-262, Arg-Ser linker, human IgG1 Fc; signal peptide 1-21 left out; also called FGFR2 beta-ECD; FGFR2c beta-EDC
# B2: Flag-FGFR2-IIIb expressed on CHO cells (receptor, human)
# chain: RPSFSLVEDTTLEPEEPPTKYQISQPEVYVAAPGESLEVRCLLKDAAVISWTKDGVHLGPNNRTVLIGEYLQIKGATPRDSGLYACTASRTVDSETWYFMVNVTDAISSGDDEDDTDGAEDFVSENSNNKRAPYWTNTEKMEKRLHAVPAANTVKFRCPAGGNPMPTMRWLKNGKEFKQEHRIGGYKVRNQHWSLIMESVVPSDKGNYTCVVENEYGSINHTYHLDVVERSPHRPILQAGLPANASTVVGGDVEFVCKVYSDAQPHIQWIKHVEKNGSKYGPDGLPYLKVLKHSGINSSNAEVLALFNVTEADAGEYICKVSNYIGQANQSAWLTVLPKQQAPGREKEITASPDYLEIAIYCIGVFLIACMVVTVILCRMKNTTKKPDFSSQPAVHKLTKRIPLRRQVTVSAESSSSMNSNTPLVRITTRLSSTADTPMLAGVSEYELPEDPKWEFPRDKLTLGKPLGEGCFGQVVMAEAVGIDKDKPKEAVTVAVKMLKDDATEKDLSDLVSEMEMMKMIGKHKNIINLLGACTQDGPLYVIVEYASKGNLREYLRARRPPGMEYSYDINRVPEEQMTFKDLVSCTYQLARGMEYLASQKCIHRDLAARNVLVTENNVMKIADFGLARDINNIDYYKKTTNGRLPVKWMAPEALFDRVYTHQSDVWSFGVLMWEIFTLGGSPYPGIPVEELFKLLKEGHRMDKPANCTNELYMMMRDCWHAVPSQRPTFKQLVEDLDRILTLTTNEEYLDLSQPLEQYSPSYPDTRSSCSSGDDSVFSPDPMPYEPCLPQYPHINGSVKT
# notes: whole, on cells; also called CHO-FGFR2-IIIb; FGFR2-IIIb-expressing CHO cells; not shown: Flag-tag at the N-terminus
# B3: human scFv clone 6, soluble (scFv)
# scFv: QSVLTQPPSVSAAPGQKVTISCSGSSSNIGNNYVSWYQQLPGTAPKLLIYDNNKRPSGIPDRFSDSKSGTSATLGITGLQTGDEADYYCGTWDSSLSAVVFGGGTKLTVLGSGGSTITSYNVYYTKLSSSGTEVQLVQSGAEVKKPGSSVKVSCKASGGTFSSYAISWVRQAPGQGLEWMGRIIPILGIANYAQKFQGRVTITADKSTSTAYMELSSLRSEDTAVYYCARDPLLWSYFDYWGQGTLVTVSS
# notes: Tags are not described; also called scFv-6; Atto-HuMab-06
# B4: human scFv clone 6, phage-displayed (scFv)
# scFv: B3 scFv
# notes: also called scFv-6; Atto-HuMab-06
# B5: dcFv-8 (Fc-fusion of human scFv Clone 8) (Fc fusion)
# chain: QSVLTQPPSVSAAPGQKVTISCSGSSSNIGNNYVSWYQQLPGTAPKLLIYDNNKRPSGIPDRFSGSKSGTSATLAISGLQSEDEADYYCAAWDDSLNGVVFGGGTKLTVLGSGGSTITSYNVYYTKLSSSGTQVQLVQSGAEVKKPGSSVKVSCKASGGTFSSYAISWVRQAPGQGLEWMGRIIPIFGTANYAQKFQGRVTITADESTSTAYMELNSLRSEDTAVYYCARDRWDWNDAFDIWGQGTMVTVSS
# notes: Bivalent fusion construct to human IgG Fc; also called clone dcFv-8; not shown: human IgG1 Fc of vector pFUSE-hIgG1e2-Fc2(IL2ss) (Invivogen)
# B6: human scFv clone 8, soluble (scFv)
# scFv: B5 chain
# notes: Tags are not described; also called scFv-8; Atto-HuMab-08
# Columns and labels:
# [1] = target: T1, FGF8b; assay: ELISA: receptor Fc fusion (4 ug/ml) on coated FGF8b, anti-human IgG Fc-HRP
# [2] = target: T4, dcFv-01 (Fc-fusion of human scFv Clone 1) (human); assay: competition ELISA: antibody pre-incubated with FGFR2IIIc-Fc, then added to ligand-coated plate (legend paragraph 175: FGF8; paragraph 640: FGF2); bound receptor detected
# T4 construct: scFv-1 fragment fused to the N-terminus of human IgG1 Fc; bivalent; also called dcFv-1; clone dcFv-1; not shown: human IgG1 Fc of vector pFUSE-hIgG1e2-Fc2(IL2ss) (Invivogen)
# [3] = target: T4, dcFv-01 (Fc-fusion of human scFv Clone …); assay: immunocytochemical staining of CHO cells transiently expressing FGFR2IIIb
# [4] = target: B1; assay: ELISA: soluble scFv on coated protein (2 ug/ml)
# [5] = target: T2, FGFR2 IIIb-Fc; assay: ELISA: soluble scFv on coated protein (2 ug/ml)
# [6] = target: human ovalbumin (OA) (human); assay: ELISA: soluble scFv on coated protein (2 ug/ml)
# [7] = target: T5, human ferritin (Fer) (human, UniProt P02794 2-183; P02792 2-175, Natural ferritin is a 24-subunit shell of H and L chains in a tissue-dependent ratio, with an iron core. The letters carry one copy of each subunit.); assay: phage ELISA on coated protein
# T5 construct: also called Feritin
# [8] = target: T3, 128AA-mFc (128-amino acid loop-3 …); assay: phage ELISA on coated protein
# [9] = target: human ovalbumin (OA) (human); assay: phage ELISA on coated protein
# [10] = target: T5, human ferritin (Fer); assay: phage ELISA on coated protein; remark: listed apart in the source
# [11] = target: B2; assay: immunocytochemical staining of CHO cells transiently expressing FGFR2IIIb
# [12] = target: B1; assay: competition ELISA: antibody pre-incubated with FGFR2IIIc-Fc, then added to ligand-coated plate (legend paragraph 175: FGF8; paragraph 640: FGF2); bound receptor detected
# [13] = target: T2, FGFR2 IIIb-Fc; assay: ELISA with soluble scFv, plate coated with FGFR2 IIIb Fc fusion (whole extracellular domain)
binder,measurement,setting,value
B1,binding result,[1],binds
same,binding result,[2],binds
B2,binding result,[3],no binding
B3,OD (450 nm),[4],0.571
same,OD (450 nm),[5],0.012
same,OD (450 nm),[6],0.015
B4,binding result,[7],no binding
same,OD (450 nm),[8],0.106
same,OD (450 nm),[9],0.018
same,OD (450 nm),[10],0.006
B5,binding result,[11],no binding
same,IC50 (read off the curve),[12],~0.3 nM
B6,OD (450 nm),[4],0.8
same,OD (450 nm),[5],0.003
same,OD (450 nm),[6],0.028
same,binding result,[11],no binding
same,binding result,[13],no binding
